Measurements published in US20260022171A1.

B1: h10F6.V1 (antibody, IgG1, V domains shown)
VH: EVQLQESGPGLVKPSETLSLTCTVSGFSLTNYRVSWVRQPPGKGLEWLGVMYAGGGTNYNSVFKSRLTISKDNSKNQVSLKLSSVTAADTAVYYCARERPLTGVMDNWGQGTLVTVSS
VL: DIVLTQSPDSLAVSLGERATINCRASESVDYSGNSFMHWFQQKPGQPPKLLIYRASNLESGIPDRFSGSGSRTDFTLTISSLQAEDVAVYYCHQSNWDPPTFGGGTKVEIKR
B2: h22.1 (humanized 22.1 IgG) (antibody, V domains shown)
VH: EVQLVQSGAEVKKPGASVKVSCKASGYTFTSYVMFWVRQAPGQRLEWIGYINPYNDDTKYNEKFKGRATLTSDKSASTAYMELSSLRSEDTAVYYCAREDYYGSRFVYWGQGTLVTVSS
VL: DIQLTQSPSSLSASVGDRVTITCRASKSVSTSGYSYMHWYQQKPGKPPKLLIYLASNLESGVPSRFSGSGSGTDFTLTISSLQPEDFATYYCQHNRELLTFGGGTKVEIKR

Key:
[1] = target: cynomolgus monkey CD200R1 on cells (cynomolgus monkey); assay: cell-surface binding, cynomolgus CD4+ T cells
[2] = target: cynomolgus monkey CD200R1 on cells (cynomolgus monkey); assay: flow cytometry, biotinylated antibody on cynomolgus monkey CD4+ T cells (PBMC), streptavidin-PE, MFI; monkey #143
[3] = target: cynomolgus monkey CD200R1 on cells (cynomolgus monkey); assay: flow cytometry on cynomolgus monkey CD4+ T cells
[4] = target: cynomolgus monkey CD200R1 on cells (cynomolgus monkey); assay: cell-surface blocking, MfCD200-Fc on K562 cells expressing MfCD200R1
[5] = target: cynomolgus monkey CD200R1 on cells (cynomolgus monkey); assay: flow cytometry, biotinylated antibody on cynomolgus monkey CD4+ T cells (PBMC), streptavidin-PE, MFI; monkey #0013
[6] = target: cynomolgus monkey CD200R1 on cells (cynomolgus monkey); assay: flow cytometry, biotinylated antibody on cynomolgus monkey CD4+ T cells (PBMC), streptavidin-PE, MFI; monkey #0023
[7] = target: human CD200R1 on cells (human) (UniProt Q8TD46); assay: cell-based or functional assay
[8] = target: human CD200R1 on cells (human) (UniProt Q8TD46); assay: flow cytometry, blocking: U937 cells stably expressing hu-CD200R1 incubated with the antibody, then with 55 nM huCD200-Fc-Flag, detected with anti-Flag PE (MFI)
[9] = target: human CD200R1 on cells (human) (UniProt Q8TD46); assay: flow cytometry, biotinylated antibody on human CD4+ T cells (pan T cells of a healthy donor), streptavidin-PE, geometric mean; unit from the axis Log M
[10] = target: human CD200R1 on cells (human) (UniProt Q8TD46); assay: flow cytometry, biotinylated antibody on human CD8+ T cells (pan T cells of a healthy donor), streptavidin-PE, geometric mean; unit from the axis log M

| Binder | EC50 [1] [nM] | EC50 (read off the curve) [2] [nM] | EC50 [3] [nM] | IC50 [4] [nM] | EC50 (read off the curve) [5] [nM] | EC50 (read off the curve) [6] [pM] | pDok2 induction, western blot, U937 cells expressing CD200R1 [7] [nM] | IC50 [8] [nM] | EC50 [9] [nM] | EC50 [10] [nM] |
| --- | --- | --- | --- | --- | --- | --- | --- | --- | --- | --- |
| B1 | 1.3 | 1 | 0.34 to 1.54 | 0.5 | 1 | 900 | – | – | – | – |
| B2 | – | – | – | – | – | – | 5.6 | 1.8 | 3.04 | 1.91 |
